The DeepSol protein solubility set

Assay: soluble on expression in E. coli; label from the status in PepcDB or PDB records

Sequence	soluble on expression in E. coli
MAHHHHHHMMSLAIEAVKDFLVKLQDDICEALEAEDGQATFMEDKWTREGGGGGRTRVMVNGAVIEKGGVNFSHVYGKGLPGSSTERHPDMTGCNFQAMGVSLVIHPKNPHVPTSHANVRLFVAEREGKEPVWWFGGGFDLTPYYAVEEDCRYFHQVAQDLCKPFGADVYTRFKVWCDEYFFIPYRNEARGIGGLFFDDLNEWPFEKCFEFVQAVGKGYIDAYIPIVNRRKNTPYTEQQVEFQEFRRGRYAEFNLVIDRGTKFGLQSGGRTESILISLPPRARWGYDWQPEPGTPEARLTEYFLMKRQWV	soluble
MNGKVIIVTGGSSGMGKYMAKRFVSDGANVVITGRRAEALEEAKREIAAPDGGKVLTIPMDVRNPEQVAHMVERTDAEFGRIDALINNAAGNFICPAEKLSINGWNSVINIVLNGTFYCSREVGNYWIQRGLKGNIINIVATYAWHAGAGVIHSASAKAGVLAMTRTLAVEWGKKYGFRVNAIAPGPIERTGGAERLWESEEAERMTLESVPLGRLGTPEEIAAVASFLLSDEAAYINGACITVDGGQWLNRRPF	soluble
MGSDKIHHHHHHVNVAQPEPGSGPTVRRMLLGSQLRRLREAKGISRADAAYKIRGSESKISRIELGRVGFKTRDVEDLLTFYGVEDEAVRDSFLKLAREANEPGWWQQYGDSLPSWFQSYVGMEEAATQLRVYETQFVPGLLQTEDYARAVVTRGGRKKLDDAARHRIATRMRRQERIRKNHNVKLWVIIDEPAVRRPVGTPEVMRAQLEHLYDLSMAPNITLQIVPFHQGVFAAETGSFTILRYPEYDLPDVVYVEQLTSCLFQEKRADVEQYTMTLEWLAVVAERPDQTRKMLQKMIKELEE	not soluble
MELLCPAGNLPALKAAIDNGADAVYIGLKDDTNARHFAGLNFTDKKLQEAVNYVHSRKRKLHIAINTFAHPDGYARWQRAVDMAAQLGADALILADLAMLEYAAERYPQVERHVSVQASATNDEAIRFYQRHFDVARVVLPRVLSMHQVKQLSRTSPVPLEVFAFGSLCIMAEGRCYLSSYLTGESPNTVGACSPARFVRWQQTPQGMESRLNDVLIDRYEDHENAGYPTLCKGRYRVDGQRYHALEEPTSLNTLELLPELFAANIASVKIEGRQRSPAYVSQVAKVWRQAIDLYQANPAQFAAKAEWMEQLGAMSEGTQTTLGAYHRKWQ	not soluble
MAHHHHHHMSTKLEQENCKLLENIEVISTWSSNNDSNMESFVEPSELDIKDDNEKCLNILNDNLIYDFEKEEDEKKKKNKKNEKSSSNIDLEYDTMKKYIKCIIHNKEKEEFYSFMKYICDSDLFLTFVQLFLDLIKNKDSNLNPHDYLINFFQINIEEENNTNSIKRKNLIKENNFYKKQNEELKKQINIIQVEIMDMKKKNMCNYITNFFFKDNKQEYDASKIFQKVNLYYENIRIEPPFYFTKDTFNLFINYLSDNKRNYIYNIITDMYNIYETNHTLFITKFYKKLTNFIEFYRSFDK	not soluble
GHMAIQRRIRRVKTVQMTTNSPIHRSGSVLEPGNWQEYDPFLLLMEDIFERGTFDVHPHRGIETVTYVISGELEHFDSKAGHSTLGPGDVQWMTAGRGVVHKEDPASGSTVHSLQLWVNLPSAYKMTEPRYQNLRSKDMPVRKEEGATIRVFSGSSKGVKAPTKNIVPVTMVEMIVEPGTTVVQDLPGHYNGFLYILEGSGVFGADNIEGKAGQALFFSRHNRGEETELNVTAREKLRLLLYAGEPVNEPVVAYGPFVMNTPEQIREAIRDYQEGRFGR	soluble
IKEGQLAEKTIRANKNIENTYETEQRKKLAAEAVTPEYIYQEDTASVQHNRIDKLFKLIDSANEKVDKEYSNKQAKAKKEETIPAPTVEERVASLKSLFESLPQDEVTFYQSFPNVFYQTIFTLTSEQLDKVRSESLMLVDDAMQNHVRESDLDKIRQEANGKIQYLDITSTMQQVIRYIVNQGIVVNDIANEKRTEELRQKAMNAVQPAMIYQGEIIVREGTQIDAKAVEKLELLGMTSQNTS	not soluble
MGSDKIHHHHHHMLIAQVTDIHLGFEPDSPDEFNRQRLDRVLAELAAMDPRPDLLLATGDLIDRGDRESYERLRDAFSNLPFPVHYALGNHDERETFSAVFPEAAFTDGFLQYIVDAGPLRIIVLDTLEEGRHGGAFCDVRARWLKARLDEAPDTRTLIVQHHPPVEVGIAWMNTDPAEPWVERLGQCLRGRTNVVGVVCGHIHRAITTAWEGTVVATCPSTAPQVALDLRPIDPDVPDQRNLIIADPPGYALHWFNGRELITHWDTAEDHQVLARYDANLQGMIQHMLAERPGAQAAE	not soluble
MVDLYQLFKTRTPIIGVVHLLPLPTSPRWGGSLKAVIDRAEQEATALASGGVNGIIVENFFDAPFTKNQVDPAVVSAMTVVVQRIQNLVTLPVGLNVLRNDGKSAMAIASCVRAQFIRVNVLTGVMATDQGLIEGEAHELLRYRRELGSDVQILADVLVKHARPLSSPNLTVAVKDTIERGLADAVILSGWATGSPPNQEDLELACDAANGTPVFIGSGASWENIATLLQAANGVIVSSSLKRHGRIEQPIDPIRVSQFVEAAHRSWNSKGESKSVSSITIHSLEHHHHHH	not soluble
DRTTYYSILGLTSNATSSEVHKSYLKLARLLHPDKTKSDKSEELFKAVVHAHSILTDEDQKLRYDRDLKIKGLHTYQPKK	not soluble
GHRVWIMYAQPYQVTLQEQQQELAQLEMARSALDSLSELICLQDCQGNLLTTNRAFDQFWEGRREEAITATASRVATRKSERKWTTDTQGRSCLLEVNLSSLVSPS	not soluble
MPGTKQVNVGSLKVGQYVMIDGVPCEIVDISVSKPGKHGGAKARVVGIGIFEKVKKEFVAPTSSKVEVPIIDRRKGQVLAIMGDMVQIMDLQTYETLELPIPEGIEGLEPGGEVEYIEAVGQYKITRVIGGK	soluble
MPRELGESLELRKGRHSVVYLTEKYAIKQFHERFRYNFLKEVKFLTLLQPFFFTPKLYFVDFANLRIVMERLRGRRFDEAFIRKAVERALEACFIMDVMGVEKQEMNHPDKHIIVGDDVYLIDFERARFKDRPSNLTQFCMYLRRFGIEIEKTLLKDYKTSVNCENFSRILHSVVEKLK	not soluble
MGSDKIHHHHHHMWKHVKQVDPEIYEVLVNELKRQEYGLELIASENFASLAVIETMGSMLTNKYAEGYPKKRYYGGCEWVDRAEERAIERAKRLFGAKFANVQPHSGSQANMAVYLALAQPGDTIMGMSLSHGGHLTHGAPVNFSGKIFKVVPYGVNLETETIDYDEVRRLALEHKPKIIVAGGSAYARIIDFKRFREIADEVGAYLMVDMAHFAGLVAAGIHPNPLEYAHVVTSTTHKTLRGPRGGLILTNDPEIAKAVDKTIFPGIQGGPLMHVIAAKAVCFKEAMTEEFKEYQKQVVKNAKKMAEEFQKRGYRIVSGGTDTHLFLVDLTPKDITGKAAEKALESCGITVNKNTIPNEKRSPFVASGIRIGTPAVTTRGMKEEEMEEIAEMIDLVLSNVIDENGTVKPEVREEVSKKVRELCERFPLYRDKIEGVEI	not soluble
MGSDKIHHHHHHMPYERKIINDPVFGFINIPKGLLYDIVRHPLLQRLTRIKQVGLSSVVYPGAQHTRFQHSLGAFYLMSEAITQLTSKGNFIFDSEAEAVQAAILLHDIGHGPFSHVLEDTIVQGVSHEEISLMLMERMNKEMNGQLSLAIQIFKDEYPKRFLHQLVSGQLDMDRLDYLRRDSFYTGVTEGNIGSARIIKMLDVADDRLVIESKGIYSIENFLTARRLMYWQVYLHKTSVAYERMLISTLLRAKELASQGVELFASPALHFFLYNDINHTEFHNNPDCLENFIQLDDNDIWTALKVWSNHPDKVLSTLSLGMINRNIFKVENSAEPIGEDRIKELTLQISQQLGITLSEANYFVSTPSIEKNMYDPADDSIDIIYKDGTIKNIAEASDMLNISLLSKKVKKYYLCYQRLHR	not soluble
MSYYHHHHHHLESTSLYKKAGLVQRITIAPQGPEFSRFVMGYWRLMDWNMSARQLVSFIEEHLDLGVTTVDHADIYGGYQCEAAFGEALKLAPHLRERMEIVSKCGIATTAREENVIGHYITDRDHIIKSAEQSLINLATDHLDLLLIHRPDPLMDADEVADAFKHLHQSGKVRHFGVSNFTPAQFALLQSRLPFTLATNQVEISPVHQPLLLDGTLDQLQQLRVRPMAWSCLGGGRLFNDDYFQPLRDELAVVAEELNAGSIEQVVNAWVLRLPSQPLPIIGSGKIERVRAAVEAETLKMTRQQWFRIRKAALGYDVP	soluble
GPGSMALVADVPPPTATSMAKLFQESSFDPVTTFEAVWLPPRVPAAPPTAGASEPVPFAAVVDVLADISATGSRLECLKQLTFLLLAVIERCPEDLVPVMYLVINKHAPQHEGVELGIGDAVLVKAVAECCGMTETRAKEEYRQSGDLAEIAQMHKQKQGTLMKPKPLSARSVFKTYKEIAMMSGRDVMRRRSDLIKGLLRDAQGPEVNLIVRGLQQKMRIGLAEPSALAAVGYAFALHFLGGAQMHKMDEVQLQTLLNTGADSLARIFYEVPSLDVVLSAVLANGFMTLVPGSSIAKQYAKDLSIRPGLPVKPQLAYPTSSITVILDRLQGKKFTSEYKYDGERAQIHYDKDKGFHIFSRNSETHTGKYPDVISMLPKVFDPVEVQSFILDSEVVAVHSETGALQAFQVLQHRGRKNIAEEDVSIPVCVFVFDILYFNGEPQLNKTLQQRRELLWRCIHPLPAKLSFATHLDSEKVEDVQTFLERSIADGCEGLMVKTLEEEANYTPAKRSHYWLKLKKDYMDGVTDTLDLVPIAAFYGKGKRTGVFGGFLLACYDPKADEYQSICKIGTGFQDEELEKLTQSLKPFVVDEKPRYYRAGGEEPDVWLTEAQVWEVKAADLSVSPVHQAAVGLVDPDKGIALRFPRYLRQREDKKPADATNARQVADMYKAQSLAAEHDANGDAE	not soluble
MGSDKIHHHHHHMANSRKHLIYLVYGRQTYHQEALFSIASAFAHLRDGAAHGLTVRVYTDDPSPYAGLPVQVREVTAEELVAWCQPHGYHFRAKHVALRDALEEADQALLIDTDTFFHSSPLRLFDRIQPGSLLCNAIGARYGEHRNFPLYRDLSPYLFERGWADDEMHQLNSGVIGLPREEAKILDRSLELMDELYPIANGAYTLEEFVLAVAAHKRLELVGCTDLIHHYWSRKQLFRAKIQAWLCKHGSSLLSAAALDDTLKVTDRLPRPPRAKRLLYKLGTLPLPAPMRQFSIELLYGCHEYSNEFDRACGPVWWEKAATNAIERYPQEPIAEQIEDWLNHSLLRNLLGSRANEIRQHLRQRDLL	not soluble
QCGACGESYAADEFWICCDLCEMWFHGKCVKITPARAEHIKQYKCPSCSNK	soluble
MAHHHHHHMLLLKRPFLPARVAPLCAQRKVSRLITYYTKSHEYIKINDEDLTELKKKNNVKCKIGISNYGTEKLGEIVYIDISQNINEYVKKGECIATVESVKSVGDVYTPISGQIVDINNEIVDNVNLMNGNSESDGWILELLTNDVNEKEIMSFSEYKKMCEEEEQREATKIQQSERDCLEEKNKNKIFDLNDIKNIEEKTKK	soluble
AGRTGRLHLAIECHSCFQWLMPALDAFRGQWPDVALDLSAAFSFAPLPALVRGDLDLVITSDPQALEAVTYLPLFKYELVLAVAESNPLAANRHVMPEQLADQTLITYPVDRQRLDIFTGF	not soluble
MSAAGDLRRRARLSRLVSFSASHRLHSPSLSDEENLRVFGKCNNPNGHGHNYKVVVTVHGEIDPVTGMVMNLTDLKEYMEEAIMKPLDHKNLDLDVPYFADAVSTTENVAVYIWESLQKLLPVGALYKVKVFETDNNIVVYKGE	soluble
